# Laboratory results taken from article PMC2722939.
# System: O=P(O)(O)O[C@@H]1O[C@H](CO)[C@@H](O)[C@H](O)[C@H]1O
# Assay: purified protein
# Settings: 5 μM βG1,6bisP, 2 mM MgCl2, 50 mM K+HEPES pH 7.0, 25 °C
Substance,Km [µM],kcat [s⁻¹],kcat/Km [M⁻¹ s⁻¹]
L. lactis β-PGM (wild type) (Lactococcus lactis subsp. lactis Il1403),31 ± 2,175,6e+06
L. lactis β-PGM (wild type) (Lactococcus lactis subsp. lactis Il1403; H20A),41 ± 3,0.026,600
L. lactis β-PGM (wild type) (Lactococcus lactis subsp. lactis Il1403; H20N),170 ± 10,0.62,4000
L. lactis β-PGM (wild type) (Lactococcus lactis subsp. lactis Il1403; H20Q),45 ± 1,21.9,500000
L. lactis β-PGM (wild type) (Lactococcus lactis subsp. lactis Il1403; K76A),66 ± 1,1.56,20000
L. lactis β-PGM (wild type) (Lactococcus lactis subsp. lactis Il1403; T16P),4.8 ± 0.3,0.026,5000
